Measurements reported in the supplement of paper PMC5998384.

How the values were obtained:
[1] = system: HeLa Kyoto; assay: thermal stability score vs G1/S (z-score of summed log2 fold changes over temperatures); higher = more thermally stable than in G1/S
[2] = system: HeLa Kyoto; assay: solubility change mitosis vs G1/S (difference of NP-40 vs SDS log2 ratios) (log2 ratio difference); higher = more soluble in mitosis
[3] = system: HeLa Kyoto; assay: solubility in G1/S (NP-40 vs SDS abundance) (log2 ratio); higher = more soluble; conditions: cell cycle stage: G1/S
[4] = system: HeLa Kyoto; assay: melting temperature (median over replicates), in situ; higher = more thermally stable
[5] = cell cycle stage: early G1 (4.5 h after nocodazole release)
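Throughout, for melting temperature (median over replicates), in situ: HeLa Kyoto cells synchronized by double thymidine or nocodazole block, proteins quantified by TMT10plex mass spectrometry, three independent biological replicates.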
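Throughout, for solubility change mitosis vs G1/S (difference of NP-40 vs SDS log2 ratios): synchronized HeLa Kyoto cells (double thymidine block for G1/S, nocodazole release for mitosis), protein amounts in NP-40 versus SDS lysates quantified by mass spectrometry, three biological replicates.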
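Throughout, for solubility in G1/S (NP-40 vs SDS abundance): HeLa Kyoto cells arrested at G1/S by double thymidine block, proteins quantified by TMT10plex mass spectrometry in mild NP-40 versus SDS extracts, three biological replicates.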
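Throughout, for thermal stability score vs G1/S (z-score of summed log2 fold changes over temperatures): synchronized HeLa Kyoto cells, proteins quantified by TMT10plex mass spectrometry, three biological replicates, mitosis taken 0.5 h after nocodazole release, G1/S directly after double thymidine block.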

| Sequence | thermal stability score [1, 5] | thermal stability score ([1]; cell cycle stage: mitosis) | solubility change mitosis (log2) [2] | solubility in G1/S (log2) [3] | melting temperature ([4]; cell cycle stage: G1/S) [°C] | melting temperature ([4]; cell cycle stage: mitosis) [°C] |
| --- | --- | --- | --- | --- | --- | --- |
| MEETMKLATMEDTVEYCLFLIPDESRDSDKHKEILQKYIERIITRFAPMLVPYIWQNQPFNLKYKPGKGGVPAHMFGVTKFGDNIEDEWFIVYVIKQITKEFPELVARIEDNDGEFLLIEAADFLPKWLDPENSTNRVFFCHGELCIIPAPRKSGAESWLPTTPPTIPQALNIITAHSEKILASESIRAAVNRRIRGYPEKIQASLHRAHCFLPAGIVAVLKQRPRLVAAAVQAFYLRDPIDLRACRVFKTFLPETRIMTSVTFTKCLYAQLVQQRFVPDRRSGYRLPPPSDPQYRAHELGMKLAHGFEILCSKCSPHFSDCKKSLVTASPLWASFLESLKKNDYFKGLIEGSAQYRERLEMAENYFQLSVDWPESSLAMSPGEEILTLLQTIPFDIEDLKKEAANLPPEDDDQWLDLSPDQLDQLLQEAVGKKESESVSKEEKEQNYDLTEVSESMKAFISKVSTHKGAELPREPSEAPITFDADSFLNYFDKILGPRPNESDSDDLDDEDFECLDSDDDLDFETHEPGEEASLKGTLDNLKSYMAQMDQELAHTCISKSFTTRNQVEPVSQTTDNNSDEEDSGTGESVMAPVDVDLNLVSNILESYSSQAGLAGPASNLLQSMGVQLPDNTDHRPTSKPTKN [ECD] | 0.346 | 0.595 | -0.113 | 0.116 | 50.8 | 50 |
| MEFPGGNDNYLTITGPSHPFLSGAETFHTPSLGDEEFEIPPISLDSDPSLAVSDVVGHFDDLADPSSSQDGSFSAQYGVQTLDMPVGMTHGLMEQGGGLLSGGLTMDLDHSIGTQYSANPPVTIDVPMTDMTSGLMGHSQLTTIDQSELSSQLGLSLGGGTILPPAQSPEDRLSTTPSPTSSLHEDGVEDFRRQLPSQKTVVVEAGKKQKAPKKRKKKDPNEPQKPVSAYALFFRDTQAAIKGQNPNATFGEVSKIVASMWDSLGEEQKQVYKRKTEAAKKEYLKALAAYKDNQECQATVETVELDPAPPSQTPSPPPMATVDPASPAPASIEPPALSPSIVVNSTLSSYVANQASSGAGGQPNITKLIITKQMLPSSITMSQGGMVTVIPATVVTSRGLQLGQTSTATIQPSQQAQIVTRSVLQAAAAAAAAASMQLPPPRLQPPPLQQMPQPPTQQQVTILQQPPPLQAMQQPPPQKVRINLQQQPPPLQIKSVPLPTLKMQTTLVPPTVESSPERPMNNSPEAHTVEAPSPETICEMITDVVPEVESPSQMDVELVSGSPVALSPQPRCVRSGCENPPIVSKDWDNEYCSNECVVKHCRDVFLAWVASRNSNTVVFVK [TOX4] | 0.423 | 0.887 | 0.0879 | -0.562 | 50.6 | 53 |
| MEFVKCLGHPEEFYNLVRFRIGGKRKVMPKMDQDSLSSSLKTCYKYLNQTSRSFAAVIQALDGEMRNAVCIFYLVLRALDTLEDDMTISVEKKVPLLHNFHSFLYQPDWRFMESKEKDRQVLEDFPTISLEFRNLAEKYQTVIADICRRMGIGMAEFLDKHVTSEQEWDKYCHYVAGLVGIGLSRLFSASEFEDPLVGEDTERANSMGLFLQKTNIIRDYLEDQQGGREFWPQEVWSRYVKKLGDFAKPENIDLAVQCLNELITNALHHIPDVITYLSRLRNQSVFNFCAIPQVMAIATLAACYNNQQVFKGAVKIRKGQAVTLMMDATNMPAVKAIIYQYMEEIYHRIPDSDPSSSKTRQIISTIRTQNLPNCQLISRSHYSPIYLSFVMLLAALSWQYLTTLSQVTEDYVQTGEH [FDFT1] | 1.39 | 0.889 | -0.0823 | -0.184 | 52.2 | 51.4 |
| MEGAGYRVVFEKGGVYLHTSAKKYQDRDSLIAGVIRVVEKDNDVLLHWAPVEEAGDSTQILFSKKDSSGGDSCASEEEPTFDPGYEPDWAVISTVRPQLCHSEPTRGAEPSCPQGSWAFSVSLGELKSIRRSKPGLSWAYLVLVTQAGGSLPALHFHRGGTRALLRVLSRYLLLASSPQDSRLYLVFPHDSSALSNSFHHLQLFDQDSSNVVSRFLQDPYSTTFSSFSRVTNFFRGALQPQPEGAASDLPPPPDDEPEPGFEVISCVELGPRPTVERGPPVTEEEWARHVGPEGRLQQVPELKNRIFSGGLSPSLRREAWKFLLGYLSWEGTAEEHKAHIRKKTDEYFRMKLQWKSVSPEQERRNSLLHGYRSLIERDVSRTDRTNKFYEGPENPGLGLLNDILLTYCMYHFDLGYVQGMSDLLSPILYVIQNEVDAFWCFCGFMELVQGNFEESQETMKRQLGRLLLLLRVLDPLLCDFLDSQDSGSLCFCFRWLLIWFKREFPFPDVLRLWEVLWTGLPGPNLHLLVACAILDMERDTLMLSGFGSNEILKHINELTMKLSVEDVLTRAEALHRQLTACPELPHNVQEILGLAPPAEPHSPSPTASPLPLSPTRAPPTPPPSTDTAPQPDSSLEILPEEEDEGADS [TBC1D17] | -0.527 | -0.608 | -0.0875 | -0.0906 | 51.4 | 50.7 |
| MEGCVSNLMVCNLAYSGKLEELKESILADKSLATRTDQDSRTALHWACSAGHTEIVEFLLQLGVPVNDKDDAGWSPLHIAASAGRDEIVKALLGKGAQVNAVNQNGCTPLHYAASKNRHEIAVMLLEGGANPDAKDHYEATAMHRAAAKGNLKMIHILLYYKASTNIQDTEGNTPLHLACDEERVEEAKLLVSQGASIYIENKEEKTPLQVAKGGLGLILKRMVEG [PSMD10] | 0.248 | 1.31 | 0.136 | 0.145 | 48.5 | 49.8 |
| MEGDAVEAIVEESETFIKGKERKTYQRRREGGQEEDACHLPQNQTDGGEVVQDVNSSVQMVMMEQLDPTLLQMKTEVMEGTVAPEAEAAVDDTQIITLQVVNMEEQPINIGELQLVQVPVPVTVPVATTSVEELQGAYENEVSKEGLAESEPMICHTLPLPEGFQVVKVGANGEVETLEQGELPPQEDPSWQKDPDYQPPAKKTKKTKKSKLRYTEEGKDVDVSVYDFEEEQQEGLLSEVNAEKVVGNMKPPKPTKIKKKGVKKTFQCELCSYTCPRRSNLDRHMKSHTDERPHKCHLCGRAFRTVTLLRNHLNTHTGTRPHKCPDCDMAFVTSGELVRHRRYKHTHEKPFKCSMCDYASVEVSKLKRHIRSHTGERPFQCSLCSYASRDTYKLKRHMRTHSGEKPYECYICHARFTQSGTMKMHILQKHTENVAKFHCPHCDTVIARKSDLGVHLRKQHSYIEQGKKCRYCDAVFHERYALIQHQKSHKNEKRFKCDQCDYACRQERHMIMHKRTHTGEKPYACSHCDKTFRQKQLLDMHFKRYHDPNFVPAAFVCSKCGKTFTRRNTMARHADNCAGPDGVEGENGGETKKSKRGRKRKMRSKKEDSSDSENAEPDLDDNEDEEEPAVEIEPEPEPQPVTPAPPPAKKRRGRPPGRTNQPKQNQPTAIIQVEDQNTGAIENIIVEVKKEPDAEPAEGEEEEAQPAATDAPNGDLTPEMILSMMDR [CTCF] | -1.57 | -1.93 | 0.0343 | -0.451 | 55.5 | 54.4 |
| MEGGLADGEPDRTSLLGDSKDVLGPSTVVANSDESQLLTPGKMSQRQGKEAYPTPTKDLHQPSLSPASPHSQGFERGKEDISQNKDESSLSMSKSKSESKLYNGSEKDSSTSSKLTKKESLKVQKKNYREEKKRATKELLSTITDPSVIVMADWLKIRGTLKSWTKLWCVLKPGVLLIYKTQKNGQWVGTVLLNACEIIERPSKKDGFCFKLFHPLEQSIWAVKGPKGEAVGSITQPLPSSYLIIRATSESDGRCWMDALELALKCSSLLKRTMIREGKEHDLSVSSDSTHVTFYGLLRANNLHSGDNFQLNDSEIERQHFKDQDMYSDKSDKENDQEHDESDNEVMGKSEESDTDTSERQDDSYIEPEPVEPLKETTYTEQSHEELGEAGEASQTETVSEENKSLIWTLLKQVRPGMDLSKVVLPTFILEPRSFLDKLSDYYYHADFLSEAALEENPYFRLKKVVKWYLSGFYKKPKGLKKPYNPILGETFRCLWIHPRTNSKTFYIAEQVSHHPPISAFYVSNRKDGFCLSGSILAKSKFYGNSLSAILEGEARLTFLNRGEDYVMTMPYAHCKGILYGTMTLELGGTVNITCQKTGYSAILEFKLKPFLGSSDCVNQISGKLKLGKEVLATLEGHWDSEVFITDKKTDNSEVFWNPTPDIKQWRLIRHTVKFEEQGDFESEKLWQRVTRAINAKDQTEATQEKYVLEEAQRQAARDRKTKNEEWSCKLFELDPLTGEWHYKFADTRPWDPLNDMIQFEKDGVIQTKVKHRTPMVSVPKMKHKPTRQQKKVAKGYSSPEPDIQDSSGSEAQSVKPSTRRKKGIELGDIQSSIESIKQTQEEIKRNIMALRNHLVSSTPATDYFLQQKDYFIIFLLILLQVIINFMFK [OSBPL8] | 0.167 | 0.896 | -0.172 | -0.118 | 49.8 | 50.9 |
| MEGLTLSDAEQKYYSDLFSYCDIESTKKVVVNGRVLELFRAAQLPNDVVLQIMELCGATRLGYFGRSQFYIALKLVAVAQSGFPLRVESINTVKDLPLPRFVASKNEQESRHAASYSSDSENQGSYSGVIPPPPGRGQVKKGSVSHDTVQPRTSADAQEPASPVVSPQQSPPTSPHTWRKHSRHPSGGNSERPLAGPGPFWSPFGEAQSGSSAGDAVWSGHSPPPPQENWVSFADTPPTSTLLTMHPASVQDQTTVRTVASATTAIEIRRQSSSYDDPWKITDEQRQYYVNQFKTIQPDLNGFIPGSAAKEFFTKSKLPILELSHIWELSDFDKDGALTLDEFCAAFHLVVARKNGYDLPEKLPESLMPKLIDLEDSADVGDQPGEVGYSGSPAEAPPSKSPSMPSLNQTWPELNQSSEQWETFSERSSSSQTLTQFDSNIAPADPDTAIVHPVPIRMTPSKIHMQEMELKRTGSDHTNPTSPLLVKPSDLLEENKINSSVKFASGNTVADGYSSSDSFTSDPEQIGSNVTRQRSHSGTSPDNTAPPPPPPRPQPSHSRSSSLDMNRTFTVTTGQQQAGVVAHPPAVPPRPQPSQAPGPAVHRPVDADGLITHTSTSPQQIPEQPNFADFSQFEVFAASNVNDEQDDEAEKHPEVLPAEKASDPASSLRVAKTDSKTEEKTAASAPANVSKGTTPLAPPPKPVRRRLKSEDELRPEVDEHTQKTGVLAAVLASQPSIPRSVGKDKKAIQASIRRNKETNTVLARLNSELQQQLKDVLEERISLEVQLEQLRPFSHL [REPS1] | 0.407 | 0.261 | -0.0971 | 0.0849 | 48.8 | 49.8 |
| MEGLVVAAGGDVSLHNFSARLWEQLVHFHVMRLTDSLFLWVGATPHLRNLAVAMCSRYDSIPVSTSLLGDTSDTTSTGLAQRLARKTNKQVFVSYNLQNTDSNFALLVENRIKEEMEAFPEKF [PSMG4] | -0.165 | -2.02 | -0.0112 | 0.14 | 57.5 | 54.1 |
| MEGNRDEAEKCVEIAREALNAGNREKAQRFLQKAEKLYPLPSARALLEIIMKNGSTAGNSPHCRKPSGSGDQSKPNCTKDSTSGSGEGGKGYTKDQVDGVLSINKCKNYYEVLGVTKDAGDEDLKKAYRKLALKFHPDKNHAPGATDAFKKIGNAYAVLSNPEKRKQYDLTGNEEQACNHQNNGRFNFHRGCEADITPEDLFNIFFGGGFPSGSVHSFSNGRAGYSQQHQHRHSGHEREEERGDGGFSVFIQLMPIIVLILVSLLSQLMVSNPPYSLYPRSGTGQTIKMQTENLGVVYYVNKDFKNEYKGMLLQKVEKSVEEDYVTNIRNNCWKERQQKTDMQYAAKVYRDDRLRRKADALSMDNCKELERLTSLYKGG [DNAJB14] | -1.51 | 0.131 | -0.15 | 0.511 | 51.3 | 51.9 |
